Laboratory results from the RNAGym collection of RNA variant scans (doi:10.1073/pnas.2313332121).

B1: TPR t1 (parent)
chain: GACCAAUCUGCCCUCAGAGCUCGAGAACAUCUUCGGAUGCAGAGGAGGCAGGCUUCGGUGGCGCGAUAGCGCCAACGUCCUCAACCUCCAAUGCAUCCCACCACAUGAUGAUGCCUGAAGAGCCUUGGUUUUUUG

Variants of: B1
Test: polymerase ribozyme fitness, log enrichment relative to wild type (log ratio); higher = more active; in vitro selection for triplet polymerase activity
Outline: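 Mutant libraries of both subunits of a heterodimeric triplet polymerase ribozyme were PCR-built, transcribed, and selected once in triplicate, with frozen incubation at −7 °C and capture of gel-excised extended constructs on streptavidin beads before RT-PCR. Illumina sequencing of input and output libraries was filtered to genotypes with ≥10 input reads and ≥1 read per output. Fitness is the logarithm of genotype enrichment over wild-type enrichment, using inverse-variance-weighted replicate averages. The logarithm is base 2.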

Point of comparison: U14A A91C C115G U133A, “polymerase ribozyme fitness (log ratio)” value -4.89. Against it:
- C34A G61U — higher, -3.25
- C34G G61C C99A U112G U116G — lower, -6.27
- C72G C99U — higher, -3.45
- C70G A100U C115A G120U — higher, -2.99
- C56A G128U U129G — higher, -0.991
- C15U C20A G42A C124A U130C — higher, -2.95
- C8U G45A G52C C123G — higher, -0.41
- C114G C123A — higher, -1.74
- U9G C70A C86A C123U — higher, -0.996
- A6U C12A C124A — higher, 0.761
- C101U C102G — lower, -6.19
- U38G C62G C86A C124A — higher, -2.75
- C15U C72A G110U — higher, -2.17
- C15G G61U U78C C101A — higher, -3.49
- G42U U81C C85G U126G — lower, -6.41
- A5U A18C A111C — higher, -2.56
- U21C G39A U54A U78A C98U G110U — lower, -6.3
- C79A A111G — higher, -0.997
- C34U A41U G63U U109A C115A — lower, -5.59
- G48C G69A — higher, -3.69
- C40U G47C U116G U132C — higher, -4.13
- A37G C53A C73G A105G U109G U112A — lower, -6.74
- U21G C56A C70U C89A G113U — higher, -3.69
- U54G C97U — higher, -0.558
- G63C A75U — higher, -0.329
- A84G G117U G135U — higher, -4.65
- C72A U96G U132A — higher, -0.0408
- G47U A111U — higher, -3.66
- G58C U81A C123A — higher, -0.0338
- G10A C22A C79A G120U C123G — lower, -5.58
- A41U G58C C62A G117C U126A G128A — lower, -7.88
- G52C G63C U87C — higher, -0.694
- U116G G120C U129A — higher, -2.49
- G10U C13A G48U C94U U132A — higher, -0.329
- C13U C124A G128A — higher, 0.853
- A29U U59G U78G G120U G128C U134A — higher, -2.27
- G47U G57A G69U — higher, -1.68
- U7A C12G A18U G45U U54G — higher, -3.04
- A18U G93C C97U G128U — lower, -5.92
- C40G A46G C64U — higher, -1.62
- C115A U116A — higher, -2.84
- A6G A46U G48U C101U U116C G122U — lower, -5.6
- C13U G51C — higher, -2.27
- C4U C22G A43U G48U C49U C97U — within 0.2 log units, -4.83
- U55A C124G — higher, 1.88
- G35A G58C G60U — lower, -5.24
- C3G G113A — higher, -3.52
- U125C — higher, -1.8
- G44U C53A C56A U67C A111C — lower, -6.43
- G45U G127U — higher, -3
- U54A A105U — higher, -1.84
- G36U G45U G47U C101U C104A C123G U125C — lower, -5.24
- C64U C82A C124A — higher, 1.31
- G58U C124A — higher, 1.26
- C40A G57A — higher, -3.1
- C12U C86G — higher, -0.52
- C8G A37U A74C C88G G110A — higher, -3.12
- G63U C94A A108G — lower, -5.53
- G19U C70G — lower, -5.52
- G17A C123A — higher, -3.08
- A46U C62A A68G G110A — lower, -5.73
- G35U G48C A121C — higher, -3.96
- C20A A50U — higher, -4.4
- C49A G117C — higher, -3.75
- C4U G47A C56U C70A C101U A119G G120U G127A — higher, -3.88
- C12U A26U C34G A50U C79U A83C C85G G110A A111C — lower, -7.36
- A111G C115U — higher, -2.28
- A2G G117A — higher, -1.6
- C12U G45A A95C U109G G117C A118G — lower, -5.62
- U7C C40A U109A U129A — lower, -6.42
- G61U C82G C85U A119U — higher, -0.891
- C13U G71A C79U C123U — higher, 1.62
- C12U C13G C82A G117A — higher, -2.59
- G36U C73U A119U — higher, -1.63
- G42C G48C U55C — higher, -1.95
- U38G A95C — higher, 0.185
- G69C C124G — higher, 0.351
- A46U C56U C72G C123G — higher, -3.53
- C40A U92C A118G — higher, -2.05
- C114G C124A G135A — higher, -0.373
- C15A C64U G110C — lower, -6.12
- A5U G60A U78A C97U — higher, -1.08
- G128C — higher, -2.23
- A26C C53U C86U U112A — lower, -5.9
- A5U C49G C53A G71U — higher, -0.914
- A46G C56A C62G U130G U131C — higher, -4.26
- C34A A103C — higher, -4.26
- C64A C94A — lower, -6.34
- G61U A74G G93U G117U — lower, -5.63
- C11G A50C A75U C97A C102U — higher, -4.52
- G47U G58C C73G C104U A121U — lower, -5.16
- A83C C115A — higher, 0.0144
- G60A U130C — higher, -0.0253
- C11G C12U G42C G69C C115G — lower, -6.44
- A6G C13G G47A C56A C80U — higher, -2.43
- C124G U132A — higher, 2.04
- G60A C115A G120U — higher, -0.811
- A66G G122A U129C — higher, -2.27
- G44U U106G A119G — higher, -1.15
- G57U G60C A84U C99A C101U G117U — lower, -6.95
- G52A G71C G93C — lower, -5.59
- G19U C89U C115A — lower, -6.23
- A90C C98U — higher, -2.83
- G42C C124A — higher, -0.168
- G35U U112C — higher, -3.04
- C88A U109C — lower, -5.25
- A2C G120C — higher, -0.618
- A6C C28G U30A G51U G69A C70A C115A G128C — lower, -6.73
- G52A C72G A95C — higher, -2
- A16U C53G — higher, -1.82
- A41U A43U — higher, -1.37
- G39A A43U C114U — higher, -2.78
- C49U U55A C62U C99U A111U — lower, -7.19
- C49U G93A C101U G127C — higher, -2.96
- A26C A46G G69U A74U — lower, -5.53
- G48U C64U — higher, -0.368
- G60U U78G C79A G110A U126C — higher, -4.68
- G45U G47U C53A G57A G58U C86A — higher, -2.17
- G60A G93A G120A — higher, -0.129
- G36U U55C A66C — higher, -3.51
- G93U G117C — higher, -4.08
- C28U G48U — higher, -2.79
- C40G C53U C94G G107U C124U U125G — lower, -7.6
- A41U G63A C124U — higher, -1.14
- C40U C72U U116G G120C G128U — higher, -4.53
- A84U A103U G110C — higher, -3.57
- A5U G19A C72G U112G — higher, -4.06
- U14C G71C — higher, -2.35
- C15U A50U C73U A118U G127A — lower, -5.35
- C56A C79G U87A — higher, -1.58
- G61A G77C U96A — higher, -1.55
- G17U G44C G57U U112C G135A — higher, -1.76
- C4G C12G G36C G44C C97G — higher, -2.86
- G77C C79U — higher, 0.563
- G42C G61C C79U A90C C115G G120U G122A — within 0.2 log units, -4.78
- A41G G57C — higher, -0.0815
- G60U C70A — higher, -3.78
- C56U C62A A75U U81C C114A U125G — higher, -4.69
- G19C C28U C34A C53G C64A C114U U126C — lower, -6.21
- U54G C85A — higher, -1.99
- C12U A26U C28U C72U C123G — lower, -5.39
- U9G G48A A111G — higher, 0.633
- A84G G128C — higher, -3.48
- A43U A46U C56A — higher, -2.93
- U87C U106A G128C — higher, -1.61
- C89G G122A — higher, -3.38
- C3U C12A A46U — higher, -1.98
- C34G A50G — lower, -6.59
- C53G G71C — higher, -0.515
- C56U G135U — higher, -1.18
- C11U G69U — higher, 0.459
- G10C C73G C80U — higher, -3.34
- A5G C49A C115U U132A — higher, -0.466
- C13U C15A A91C — higher, -4.3
- U55C G60A C82A — higher, -0.172
- C56U G110U U116G G117U — lower, -6.29
- C49G C73G C89U G113A G122C — higher, -4.49
- C28G U33A C53A C114U G128U U133A — lower, -7.29
- C12U G36A C62G C73A — lower, -6.24
- C22G A29C A84C — higher, -3.73
- C12A C56A C123U U131G — higher, 0.231
- G63A U130C — higher, -0.399
- U59A A83U G93A — higher, -0.452
- C34G C97U C123A — lower, -6.44
- G45C C56A — higher, -1.46
- A5G A74G A118C — higher, -3.85
